Data taken from patent publication US20230242654A1, “REAGENTS FOR EXPANDING CELLS EXPRESSING RECOMBINANT RECEPTORS” (Juno Therapeutics, Inc., priority 2017, published 2023).

Tests used:
Assay type in all cases: cell-based, human
[1] = tested on: CD4+ or CD8+ CAR-expressing T cells; assay: Expansion after serial restimulation, 4 rounds in 14 days
Description: The ability of cells to expand ex vivo following repeated stimulations may be a potential surrogate for capacity of CAR+ T cells to persist (e.g. following initial activation) and/or is indicative of function in vivo (Zhao et al. (2015) Cancer Cell, 28:415-28). CAR+ T cells were generated as described above and thawed CD4+ or CD8+ CAR-expressing T cells were plated separately at 50,000 CAR+ cells/well. Anti-ID B-1 conjugated beads were added to cells at a 1:1 or 1:5 cell:bead ratio in the presence or absence of cytokines as described in Example 10. As a control, anti-CD3/anti-CD28 magnetic beads were added to cells at a 3:1 cell:bead ratio in the presence or absence of the cytokines. Cells were harvested every 3-4 days and counted, and restimulated with new […] using the same culture conditions after resetting cell number to initial seeding density for each round. A total of 4 rounds of stimulation during a 14 day culture period were carried out. For each round of stimulation, the number of doublings was determined.

[2] = tested on: T cells transduced with anti-CD19 CAR having an scFv derived from FMC63; assay: Stimulation of T cells cultured with anti-idiotype antibody-conjugated beads up to 14 days
Description: The FMC63-derived scFv-specific anti-ID B-1-conjugated beads were incubated with T cells. CD3-purified T cells were isolated by immunoaffinity-based enrichment from leukapheresis samples from healthy donors. Isolated cells were transduced with a viral vector encoding an anti-CD19 CAR having an scFv derived from FMC63. The viral vector construct further encoded a truncated EGFR (EGFRt), which served as a surrogate marker for CAR expression; the EGFRt-coding region was separated from the CAR sequence by a T2A skip sequence. After transductions, cells were expanded in culture and frozen by cryopreservation.
For T cells stimulation studies, thawed CD4+ or CD8+ CAR-expressing cells were separately seeded at approximately 50,000 total cells per well. In some cases, the culture media was additionally supplemented with cytokines as follows: for CD4+ cells, approximately 1200 IU/mL recombinant IL-7, 20 IU/mL recombinant IL-15 and 100 IU/mL recombinant IL-2; for CD8+ cells, approximately 200 IU/mL recombinant IL-2 and 20 IU/mL recombinant IL-15. Anti-ID B-1 conjugated beads were added to cells at a 1:1 or 1:5 cell:bead ratio and incubated up to 14 days with a 50% media exchange every 2-3 days. As a positive control, cells were cultured with anti-CD3/anti-CD28 magnetic beads at a 3:1 cell:bead ratio in the presence or absence of the indicated cytokines.
At various times of culture, CD4+ or CD8+ transduced cells (as detected by anti-EGFR for expression of the surrogate marker) were assessed for expansion, PD-1 expression and viability.

anti-CD19 CAR+ T cells = assay: Chronic stimulation assay, 14 days with anti-ID conjugated beads, then K562-CD19 challenge; settings: 14 days CAR-specific stimulation versus none; E:T 1:1
Text: Separate compositions of CD4+ and CD8+ cells were isolated from human donors, activated and transduced with a viral vector encoding an anti-CD19 CAR having an scFv derived from FMC63. CD4+ and CD8+ T cells from each donor were then separately harvested, formulated, and cryofrozen. The cryofrozen engineered CD4+ and CD8+ T cells were thawed and formulated at a 1:1 ratio of CD4+ and CD8+ T cells from the same donor to generate a T cell composition containing CAR+ T cells. Anti-ID conjugated beads against the anti-CD19 CAR were incubated with cells at a 1:1 bead:cell ratio for 14 days.
[…] The primary response of T cells from the T cell composition that had not been incubated with the anti-ID conjugated beads also was determined by similar stimulation with antigen-expressing cells (Day 0; “primary”). […] Killing activity was assessed by measuring the loss of viable target cells over 72 hours, as determined by loss of fluorescent signal over time by kinetic fluorescence microscopy (using the INCUCYTE® Live Cell Analysis System, Essen Bioscience). Killing index was determined as the inverse of the area under the curve (AUC) for target fluorescence over time. Intracellular cytokine levels of IL-2 and TNF-alpha also was assessed by flow cytometry in co-cultured T cells after incubation in the presence of Golgi inhibitor. […]

B1: anti-ID conjugated beads: FMC63-derived scFv-specific anti-idiotype antibody (B-1 in Examples 10-14) covalently coupled to tosyl-activated magnetic beads (conjugate)
heavy: EVQLQQSGPELVKPGASVKMSCKASGYTFTDYYMKWVKQCHGKSLEWIGDINPNNGGTDYNQNFKGKATLTVDKSSSTAYMQLNSLTSEDSAVYYCAREGNNYGSRDAMDYWGQGTSVTVSSAKTTAPSVYPLAPVCGDTTGSSVTLGCLVKGYFPEPVTLTWNSGSLSSGVHTFPAVLQSDLYTLSSSVTVTSSTWPSQSITCNVAHPASSTKVDKKIEPRGPTIKPCPPCKCPAPNLLGGPSVFIFPPKIKDVLMISLSPIVTCVVVDVSEDDPDVQISWFVNNVEVHTAQTQTHREDYNSTLRVVSALPIQHQDWMSGKEFKCKVNNKDLPAPIERTISKPKGSVRAPQVYVLPPPEEEMTKKQVTLTCMVTDFMPEDIYVEWTNNGKTELNYKNTEPVLDSDGSYFMYSKLRVEKKNWVERNSYSCSVVHEGLHNHHTTKSFSRTPGK
light: QIVLTQSPALMSASPGEKVTMTCSASSGVIYMYWYQQKPRSSPKPWIYLTSNLASGVPARFSGSGSGTSYSLTISSMEAEDAATYYCQQWSSNPLTFGAGTKLELKRADAAPTVSIFPPSSEQLTSGGASVVCFLNNFYPKDINVKWKIDGSERQNGVLNSWTDQDSKDSTYSMSSTLTLTKDEYERHNSYTCEATHKTSTSPIVKSFNRNEC
expansion of CAR-expressing (EGFRt+) CD4+ cells after restimulation ([1]; 1:1 or 1:5 cell:bead, 4 rounds): continued cell expansion
extent of expansion of CD4+ cells ([1]; versus anti-CD3/anti-CD28 beads): the extent of expansion was greater
expansion of CD8+ T cells ([1]; versus anti-CD3/anti-CD28 beads, particularly without recombinant cytokines): expansion was somewhat greater
extent of expansion of CD4+ and CD8+ T cells ([2]; 1:1 or 1:5 cell:bead, versus control anti-CD3/anti-CD28 magnetic beads): The extent of expansion was greater
percent viability of CD4+ and CD8+ T cells ([2]; cultured in the presence of cytokines): remained consistently high
surface expression of PD-1 on the CD4+ cell subset ([2]; days 3, 7, 10 and 14): substantially lower or undetectable
Intracellular cytokine levels of IL-2 and TNF-alpha (anti-CD19 CAR+ T cells): also were reduced
